Results from PMC7417313, “Characterization of Binding Properties of Individual Functional Sites of Human Complement Factor H” (Frontiers in Immunology, 2020).

Biological target: T1, C3b (human)
T1 construct: human complement C3, beta chain, as in C3b; human complement C3, alpha' chain of C3b (alpha chain without C3a); Mr 176,000 used; also called soluble C3b; fluid phase C3b
Test: SPR; His-tagged rH fragment held on a Ni-charged NTA chip (BIAcore X or 3000; 500-1,000 RU, reloaded for each injection), C3 protein injected in HBS-P (10 mM HEPES pH 7.4, 150 mM NaCl, 0.005% P20) at 5 μL/min, 25°C; reference cell with nickel only; equilibrium levels fitted to a one-site equation
Details: both partners purified

- Kd: 15 µM
B1: recombinant Factor H fragment rH 6-15 (domain or fragment)
chain: PCDYPDIKHGGLYHENMRRPYFPVAVGKYYSYYCDEHFETPSGSYWDHIHCTQDGWSPAVPCLRKCYFPYLENGYNQNYGRKFVQGKSIDVACHPGYALPKAQTTVTCMENGWSPTPRCIRVKTCSKSSIDIENGFISESQYTYALKEKAKYQCKLGYVTADGETSGSITCGKDGWSAQPTCIKSCDIPVFMNARTKNDFTWFKLNDTLDYECHDGYESNTGSTTGSIVCGYNGWSDLPICYERECELPKIDVHLVPDRKKDQYKVGEVLKFSCKPGFTIVGPNSVQCYHFGLSPDLPICKEQVQSCGPPPELLNGNVKEKTKEEYGHSEVVEYYCNPRFLMKGPNKIQCVDGEWTTLPVCIVEESTCGDIPELEHGWAQLSSPPYYYGDSVEFNCSESFTMIGHRSITCIHGVWTQLPQCVAIDKLKKCKSSNLIILEEHLKNKKEFDHNSNIRYRCRGKEGWIHTVCINGRWDPEVNCSMAQIQLCPPPPQIPNSHNMTTTLNYRDGEKVSVLCQENYLIQEGEEITCKDGRWQSIPLCVEKIPCSQPPQIEHGTINSSRSSQESYAHGTKLSYTCEGGFRISEENETTCYMGKWSSPPQCEG
modifications: Limits from Sushi 6 start to Sushi 15 end (928 by convention, as the candidate feature list is cut off after Sushi 12). Residue 402 is set to Tyr as printed (Y402 variant), whichever allele the entry
